Among the data in PMC5448812, “Distinct DNA-binding surfaces in the ATPase and linker domains of MutLγ determine its substrate specificities and exert separable functions in meiotic recombination and mismatch repair” (PLoS Genetics, 2017) are Km values, retold here.

Substrate in this data set: Nc1ncnc2c1ncn2[C@@H]1O[C@H](COP(=O)(O)OP(=O)(O)OP(=O)(O)O)[C@@H](O)[C@H]1O
Kind of data set: ATP hydrolysis, thin layer chromatography of [α-32P]-ADP. The class given is biochemical, Saccharomyces cerevisiae. The settings on record: 200 nM MutLγ, 25 mM Tris-HCl pH 7.5, 5 mM MgCl2, 1 mg/ml BSA, 30°C, no DNA, labelled compound as tracer (33 nM [α-32P]-ATP plus cold ATP), both subunits carry a GHKL ATPase domain, single apparent Km.

B1: MutLγ (Mlh1-Mlh3) (Saccharomyces cerevisiae S288C) (protein)
chain 1: MSLRIKALDASVVNKIAAGEIIISPVNALKEMMENSIDANATMIDILVKEGGIKVLQITDNGSGINKADLPILCERFTTSKLQKFEDLSQIQTYGFRGEALASISHVARVTVTTKVKEDRCAWRVSYAEGKMLESPKPVAGKDGTTILVEDLFFNIPSRLRALRSHNDEYSKILDVVGRYAIHSKDIGFSCKKFGDSNYSLSVKPSYTVQDRIRTVFNKSVASNLITFHISKVEDLNLESVDGKVCNLNFISKKSISPIFFINNRLVTCDLLRRALNSVYSNYLPKGNRPFIYLGIVIDPAAVDVNVHPTKREVRFLSQDEIIEKIANQLHAELSAIDTSRTFKASSISTNKPESLIPFNDTIESDRNRKSLRQAQVVENSYTTANSQLRKAKRQENKLVRIDASQAKITSFLSSSQQFNFEGSSTKRQLSEPKVTNVSHSQEAEKLTLNESEQPRDANTINDNDLKDQPKKKQKLGDYKVPSIADDEKNALPISKDGYIRVPKERVNVNLTSIKKLREKVDDSIHRELTDIFANLNYVGVVDEERRLAAIQHDLKLFLIDYGSVCYELFYQIGLTDFANFGKINLQSTNVSDDIVLYNLLSEFDELNDDASKEKIISKIWDMSSMLNEYYSIELVNDGLDNDLKSVKLKSLPLLLKGYIPSLVKLPFFIYRLGKEVDWEDEQECLDGILREIALLYIPDMVPKVDTSDASLSEDEKAQFINRKEHISSLLEHVLFPCIKRRFLAPRHILKDVVEIANLPDLYKVFERC
chain 2: MSQHIRKLDSDVSERLKSQACTVSLASAVREIVQNSVDAHATTIDVMIDLPNLSFAVYDDGIGLTRSDLNILATQNYTSKIRKMNDLVTMKTYGYRGDALYSISNVSNLFVCSKKKDYNSAWMRKFPSKSVMLSENTILPIDPFWKICPWSRTKSGTVVIVEDMLYNLPVRRRILKEEPPFKTFNTIKADMLQILVMHPMISLNVQYTDKLRINTEVLFRSKNITEGLTKHQQMSQVLRNVFGAIIPPDMLKKVSLKFNEYQIEGIISKMPVGLKDLQFIYINGRRYADSAFQGYVDSLFQAQDFGEKGMSLLKTKSVGKPYRSHPVFILDVRCPQTIDDLLQDPAKKIVKPSHIRTIEPLIVKTIRSFLTFQGYLTPDKSDSSFEIVNCSQKTATLPDSRIQISKRNQVLNSKMKIARINSYIGKPAVNGCRINNSTINYEKIKNIRIDGQKSRLRNKLSSRPYDSGFTEDYDSIGKTITDFSISRSVLAKYEVINQVDKKFILIRCLDQSIHNCPLLVLVDQHACDERIRLEELFYSLLTEVVTGTFVARDLKDCCIEVDRTEADLFKHYQSEFKKWGIGYETIEGTMETSLLEIKTLPEMLTSKYNGDKDYLKMVLLQHAHDLKDFKKLPMDLSHFENYTSVDKLYWWKYSSCVPTVFHEILNSKACRSAVMFGDELTRQECIILISKLSRCHNPFECAHGRPSMVPIAELK
notes: full-length heterodimer (175 kDa), N-terminal 6xHis-2xFlag tag kept on Mlh1 (Mlh3 untagged), co-expressed from baculoviruses in Sf9 cells
The term Km denotes the substrate concentration at which the rate is half of its maximum. Turning to B1, the Km was determined as 64 ± 13 µM.
